# Key:
# [1] = biological target: T1, HLA-PEPTIDE target A*01:01_… (G2) on cells (human); assay: flow cytometry, A375 cells expressing the CT83 pHLA 9-mer
# T1 construct: whole, on cells; also recovered from cell lysates in the IP-MS experiment; also called G2 pHLA; G2 target
# Method: (§1) A375 transduced with luciferase alone served as the negative control. […] Binding was determined by flow cytometery using an anti IgG-PE antibody for detection.
# [2] = biological target: T1, HLA-PEPTIDE target A*01:01_… (G2) on …; assay: flow cytometry, anti IgG PE, A375 9mer cells (1e6 copies per cell)
# Method: as §1
# [3] = biological target: T2, biotinylated refolded G2-pHLA (A*01:01/b2m/…) (human, biotinylated at the C-terminal AviTag); assay: BLI (ForteBio Octet HTX), biotinylated G2-pHLA captured on streptavidin SAX biosensor, antibody in solution, 1:1 kinetic model
# T2 construct: Soluble complex caught on streptavidin sensors or MSD plates; also called G2-peptide A*01:01/b2m complex; WT
# From the text: (§2) The biosensors were then dipped in assay buffer for a baseline. […] The biosensors were finally dipped into wells containing assay buffer to measure the dissociation rate for another 50 seconds. Referencing was completed by having a biosensor with no immobilized ligand dipped into analyte. Kinetic data was processed with Octet™ software using a 1:1 kinetic model with errors within 10%, X² below 3, and R² above 0.9.
# [4] = biological target: T2, biotinylated refolded G2-pHLA …; assay: BLI (ForteBio Octet HTX), biotinylated G2-pHLA captured on streptavidin SAX biosensor, antibody in solution, 1:1 Fit
# From the text: as §2
# [5] = biological target: T1, HLA-PEPTIDE target A*01:01_… (G2) on …; assay: flow cytometry, A375 cells engineered to express the G2 peptide
# Method: Tumor cells engineered to express target peptide were harvested, washed in PBS, and stained with eBioscience Fixable Viability Dye eFluor 450 for 15 minutes at room temperature. Following another wash in PBS+1-2% FBS, cells were resuspended with the indicated molecules at varying concentrations and incubated for 1 hour at 4° C. After another wash, PE-conjugated goat anti-human IgG secondary antibody (Jackson ImmunoResearch) was added at 1:100 to 1:200 for 30 minutes at 4° C. After washing in PBS+1-2% FBS, cells were resuspended in PBS+1-2% FBS and analyzed by flow cytometry. Flow cytometric analysis was performed on the Attune NxT Flow Cytometer (ThermoFisher) using the Attune NxT Software. Data was analyzed using FlowJo.
# [6] = biological target: T2, biotinylated refolded G2-pHLA …; assay: BLI (ForteBio Octet HTX), biotinylated G2-pHLA captured on streptavidin SAX biosensor, antibody in solution, 1:2 Fit
# [7] = biological target: T2, biotinylated refolded G2-pHLA …; assay: BLI (Octet), biotinylated pHLA on streptavidin sensor, bivalent antibody as analyte (apparent affinity)
# From the text: as §2
# CD3 on CD3+ Jurkat cells = biological target: T3, CD3 on CD3+ Jurkat cells (human, UniProt P07766 23-207); assay: flow cytometry, anti IgG PE, CD3+ Jurkat cells
# T3 construct: whole, on cells
# T3 sequence (P07766 23-207): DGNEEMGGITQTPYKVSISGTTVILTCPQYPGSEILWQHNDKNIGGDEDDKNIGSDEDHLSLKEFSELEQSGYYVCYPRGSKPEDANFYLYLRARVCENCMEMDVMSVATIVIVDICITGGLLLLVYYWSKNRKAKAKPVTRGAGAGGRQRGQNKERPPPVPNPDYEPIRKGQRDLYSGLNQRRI
# [8] = biological target: T4, G5 pHLA (HLA-B*35:01 with …) on cells (human); assay: flow cytometry, anti IgG PE, LN229 G5 9mer cells (4500 copies per cell)
# T4 construct: whole, on cells
binder,measurement,setting,value
"43-E07 UCHT1v9 (Format 43 31E07-CD3 bispecific antibody) (bispecific antibody, human IgG1, kappa, also called 43-E07 hUCHT1v9; 43-31E07-GGGGS-UCHT1v9) EVQLVESGGGLVQPGGSLRLSCAASGYSFTGYTMNWVRQAPGKGLEWVALINPYKGVSTYNQKFKDRFTISVDKSKNTAYLQMNSLRAEDTAVYYCARSGYYGDSDWYFDVWGQGTLVTVSSGGGGSGGGGSDIQMTQSPSSLSASVGDRVTITCRASQEIRRWLAWYQQKPGKAPKLLIYAASNLQSGVPSRFSGSGSGTDFTLTISSLQPEDFATYYCQQSYSTPYTFGQGTKLEIKGGGGSEPKSSDKTHTCPPCPAPEFEGGPSVFLFPPKPKDTLMISRTPEVTCVVVDVSHEDPEVKFNWYVDGVEVHNAKTKPREEQYNSTYRVVSVLTVLHQDWLNGKEYKCKVSNKALPASIEKTISKAKGQPREPQVYTLPPCREEMTKNQVSLWCLVKGFYPSDIAVEWESNGQPENNYKTTPPVLDSDGSFFLYSKLTVDKSRWQQGNVFSCSVMHEALHNHYTQKSLSLSPGK heavy: QVQLVQSGAEVKKPGASVKVSCKASGFTFTNYLIHWVRQAPGQGLEWMGWINPNSGGTNYAQRLQGRVTMTRDTSTSTVYMELSSLRSEDTAVYYCARDYGAGNDYWGQGTLVTVSSGGGGSGGGGSDIQMTQSPSSLSASVGDRVTITCRASQDIRNYLNWYQQKPGKAPKLLIYYTSRLESGVPSRFSGSGSGTDYTLTISSLQPEDFATYYCQQGNTLPWTFGQGTKVEIKGGGGSGGGGSQVQLVQSGAEVKKPGASVKVSCKASGFTFTNYLIHWVRQAPGQGLEWMGWINPNSGGTNYAQRLQGRVTMTRDTSTSTVYMELSSLRSEDTAVYYCARDYGAGNDYWGQGTLVTVSSASTKGPSVFPLAPSSKSTSGGTAALGCLVKDYFPEPVTVSWNSGALTSGVHTFPAVLQSSGLYSLSSVVTVPSSSLGTQTYICNVNHKPSNTKVDKRVEPKSCDKTHTCPPCPAPEFEGGPSVFLFPPKPKDTLMISRTPEVTCVVVDVSHEDPEVKFNWYVDGVEVHNAKTKPREEQYNSTYRVVSVLTVLHQDWLNGKEYKCKVSNKALPASIEKTISKAKGQPREPQVCTLPPSREEMTKNQVSLSCAVKGFYPSDIAVEWESNGQPENNYKTTPPVLDSDGSFFLVSKLTVDKSRWQQGNVFSCSVMHEALHNRFTQKSLSLSPGK light: DIQMTQSPSSLSASVGDRVTITCRASQEIRRWLAWYQQKPGKAPKLLIYAASNLQSGVPSRFSGSGSGTDFTLTISSLQPEDFATYYCQQSYSTPYTFGQGTKLEIKRTVAAPSVFIFPPSDEQLKSGTASVVCLLNNFYPREAKVQWKVDNALQSGNSQESVTEQDSKDSTYSLSSTLTLSKADYEKHKVYACEVTHQGLSSPVTKSFNRGEC",fold increase in binding against 41-E07 UCHT1v9,[1],~10 fold
same,EC50 (read off the curve),[2],~0.3 nM
"Format 4-G2(1H11) hOKT3a (non-shortened linkers, without DSB) (bispecific antibody, human IgG1, kappa, N297Q, In solution a mixture of 2xscFv and diabody conformations; also called G2 Format 4 bispecific; G2(1H11)hOKT3a 2xscFv) not shown heavy: QVQLVQSGAEVKKPGASVKVSCKASGYTFTNYYMHWVRQAPGQGLEWMGMINPSGGGTSYAQKFQGRVTMTRDTSTSTVYMELSSLRSEDTAVYYCARGNPWELRLDYWGQGTLVTVSSGGGGSGGGGSGGGGSGGGGSDIQMTQSPSSLSASVGDRVTITCQASQDISNYLNWYQQKPGKAPKLLIYAASSLQSGVPSRFSGSGSGTDFTLTISSLQPEDFATYYCQQYYSYPFTFGPGTKVDIKGGGGSGGGGSQVQLVQSGAEVKKPGASVKVSCKASGYTFTRYTMHWVRQAPGQGLEWMGYINPSRGYTNYNQKFKDRVTLTTDKSSSTAYMELSSLRSEDTAVYYCARYYDDHYSLDYWGQGTLVTVSSASTKGPSVFPLAPSSKSTSGGTAALGCLVKDYFPEPVTVSWNSGALTSGVHTFPAVLQSSGLYSLSSVVTVPSSSLGTQTYICNVNHKPSNTKVDKRVEPKSCDKTHTCPPCPAPELLGGPSVFLFPPKPKDTLMISRTPEVTCVVVDVSHEDPEVKFNWYVDGVEVHNAKTKPREEQYQSTYRVVSVLTVLHQDWLNGKEYKCKVSNKALPAPIEKTISKAKGQPREPQVCTLPPSREEMTKNQVSLSCAVKGFYPSDIAVEWESNGQPENNYKTTPPVLDSDGSFFLVSKLTVDKSRWQQGNVFSCSVMHEALHNRFTQKSLSLSPGK light: DIQMTQSPSSLSASVGDRVTITCSASSSVSYMNWYQQKPGKAPKRLIYDTSKLASGVPSRFSGSGSGTDFTLTISSLQPEDFATYYCQQWSSNPFTFGQGTKLEIKRTVAAPSVFIFPPSDEQLKSGTASVVCLLNNFYPREAKVQWKVDNALQSGNSQESVTEQDSKDSTYSLSSTLTLSKADYEKHKVYACEVTHQGLSSPVTKSFNRGEC",koff,[3],0.00397 s⁻¹
same,Kd,[4],30.3 nM
same,koff,[4],0.0277 s⁻¹
same,kon,[4],913000 M⁻¹ s⁻¹
same,EC50,[5],9.8 nM
same,Kd,[6],1640 nM
same,koff,[6],0.324 s⁻¹
same,kon,[6],198000 M⁻¹ s⁻¹
same,Kd,[7],18 nM
"41-G5(1C12) UCHT1v9 diabody (bispecific antibody, human IgG1, kappa, also called 41-G5(1C12) hUCHT1v9; 41-G5 UCHT1v9) QVQLVQSGAEVKKPGSSVKVSCKASGGTFSNFGVSWLRQAPGQGLEWMGGIIPILGTANYAQKFQGRVTITADESTSTAYMELSSLRSEDTAVYYCATPTNSGYYGPYYYYGMDVWGQGTTVTVSSGGGGSGGGGSDIQMTQSPSSLSASVGDRVTITCRASQSISSWLAWYQQKPGKAPKLLIYAASTLQSGVPSRFSGSGSGTDFTLTISSLQPEDFATYYCQQSYSIPLTFGGGTKVEIKGGGGSEPKSSDKTHTCPPCPAPEFEGGPSVFLFPPKPKDTLMISRTPEVTCVVVDVSHEDPEVKFNWYVDGVEVHNAKTKPREEQYNSTYRVVSVLTVLHQDWLNGKEYKCKVSNKALPASIEKTISKAKGQPREPQVYTLPPCREEMTKNQVSLWCLVKGFYPSDIAVEWESNGQPENNYKTTPPVLDSDGSFFLYSKLTVDKSRWQQGNVFSCSVMHEALHNHYTQKSLSLSPGK heavy: QVQLVQSGAEVKKPGSSVKVSCKASGGTFSNFGVSWLRQAPGQGLEWMGGIIPILGTANYAQKFQGRVTITADESTSTAYMELSSLRSEDTAVYYCATPTNSGYYGPYYYYGMDVWGQGTTVTVSSGGGGSGGGGSDIQMTQSPSSLSASVGDRVTITCRASQSISSWLAWYQQKPGKAPKLLIYAASTLQSGVPSRFSGSGSGTDFTLTISSLQPEDFATYYCQQSYSIPLTFGGGTKVEIKGGGGSGGGGSEVQLVESGGGLVQPGGSLRLSCAASGYSFTGYTMNWVRQAPGKGLEWVALINPYKGVSTYNQKFKDRFTISVDKSKNTAYLQMNSLRAEDTAVYYCARSGYYGDSDWYFDVWGQGTLVTVSSASTKGPSVFPLAPSSKSTSGGTAALGCLVKDYFPEPVTVSWNSGALTSGVHTFPAVLQSSGLYSLSSVVTVPSSSLGTQTYICNVNHKPSNTKVDKRVEPKSCDKTHTCPPCPAPEFEGGPSVFLFPPKPKDTLMISRTPEVTCVVVDVSHEDPEVKFNWYVDGVEVHNAKTKPREEQYNSTYRVVSVLTVLHQDWLNGKEYKCKVSNKALPASIEKTISKAKGQPREPQVCTLPPSREEMTKNQVSLSCAVKGFYPSDIAVEWESNGQPENNYKTTPPVLDSDGSFFLVSKLTVDKSRWQQGNVFSCSVMHEALHNRFTQKSLSLSPGK light: not shown",EC50 (read off the curve),CD3 on CD3+ Jurkat cells,~4 nM
same,EC50 (read off the curve),[8],~4 nM

# Source: patent US20260062487A1 (GRITSTONE BIO, published 2026)
